Laboratory results from the supplement of paper PMC12042874.
± gives the uncertainty stated by the source.

Experiment: amyloid nucleation score (Sup35N fusion, yeast selection) (log enrichment); library NNK3; higher = more nucleation; inactive = no reads after selection
In short: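 The nucleation score, computed with DiMSum, is the log enrichment of output over input reads, centred on the mode score of non-aggregating sequences. Sequences with under 100 input reads were dropped. Reads were generated by Illumina sequencing of plasmid inserts from psi-negative yeast with Sup35N fused to peptides of 20 random codons, induced with 100 μM copper sulfate for 24 hours and grown 7 days at 30°C on medium lacking adenine and uracil.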

Substance | amyloid nucleation score
FDRKYW | inactive
FDRYYVSPLRVLHQVGCEIL | inactive
FDSYRVYM | inactive
FDVVWL | inactive
FDWIQDHSQCGIIFTCVKLG | inactive
FEHPHGGVNS | inactive
FEIYECQLAC | inactive
FELPSVKGGCILPSQILP | -0.517 ± 0.73
FESLHSCV | inactive
FFARSHAVIINFFCTH | 2.72 ± 0.066
FFCNLSSILRWGN | 0.572 ± 0.18
FFDTTYLLNSGMNVVLDAYF | 1.76 ± 0.097
FFFFTLKTSVQADLHDMLSQ | 0.792 ± 0.16
FFFLNSWVFYVLMNNDIVCA | inactive
FFFLWGAP | inactive
FFFTSKSLGPVTLTLISVSD | inactive
FFIDQLKEFSHY | inactive
FFIDYIHTYRYESSASMS | inactive
FFKSLRV | inactive
FFKVSPMYY | inactive
FFLIEQFYTYWMGGIMMIQR | inactive
FFLTLGYVVGYQRWSYILWR | inactive
FFNVMVS | inactive

Substance | amyloid nucleation score
FFQDQFVDWLDYTVLRI | inactive
FFREYTSSRQMNICYLSFHG | inactive
FFRQQKYSVCLFGGTFIWVV | inactive
FFSDTYSNTSPM | inactive
FFSSDDMWRYWMFSYSDNSI | inactive
FFSSFPFKIIEMLSFEGSFR | inactive
FFVKYVLEKCAWKY | inactive
FGFCCKAPCVGSLWVPSVVT | inactive
FGHIGQRRSFVIHLMHDGSP | inactive
FGILSDIVCSTVVKNCDL | inactive
FGIWCTIPWLLFRYSVDMFM | inactive
FGMPCFSSEYLLTCMVVLTG | inactive
FGMSQKSSRGWGLNV | inactive
FGRQVSDGVASFMSNTSLYR | inactive
FGTEDK | inactive
FGTVAWPITFIIRMAVGSSC | 0.936 ± 0.15
FGVGMALALCQRH | inactive
FGVIRHERMEMWRHRSNRCV | inactive
FGVTTEF | 1.23 ± 0.14
FGWLTPDMKFLCTYKQRISG | inactive
FHDVMKGGI | inactive
FHSSFSVYCPFNSMLASV | 0.005 ± 0.58
FHSSS | inactive

Substance | amyloid nucleation score
FHVTVFWNRHNSDLMVLHR | inactive
FHYCCYITAAQYYDACCVVP | inactive
FHYRENVNREHSPFWSREMV | inactive
FICVAIGTFCFIEMMHLIGR | 1.23 ± 0.086
FIGDGSRDRRDGLLDLY | inactive
FIGFSAWWNGMDNVRVLASS | -0.269 ± 0.73
FIIWAMDWVFASRL | inactive
FIKLKGL | inactive
FIKYFANLRKFCDILSCSL | 1.27 ± 0.14
FILGWCGIYSTACPNTSTGT | inactive
FILSVCYARRDLTLKRTPSR | inactive
FIPPSLCIITS | inactive
FIQYEHNLPGTARGKCIQC | inactive
FISSSSTRILQYGRYTVEIN | inactive
FIWVFCD | inactive
FKCTVIGDTILPNTFSLWRF | inactive
FKDFIIICLAKLFGIFYDTD | inactive
FKDVSVPIR | inactive
FKKCVDLKHYNVSMDVRCVL | inactive
FKLRTDIAMDINVGQDLSGL | inactive
FKLSMLA | inactive
FKPTRSHQGSFSSVTMFLVG | 0.261 ± 0.29
FKYYRSYYPYICLKSVI | inactive

Substance | amyloid nucleation score
FLALDQISFVIRCLNI | inactive
FLANGSDWIFLWFRIHVDHF | inactive
FLAYGWWHYKWSGNDTLHSF | inactive
FLCSTVIISNVLMRPAYYVR | inactive
FLCVRSFRFVCVLFFNDIT | inactive
FLDDLTLVHGRSETKKNL | inactive
FLDIRMMIRRLTGGPESVSL | inactive
FLGDYRILSLLFYI | 2.49 ± 0.053
FLGSLVSLRCKWFVAF | 0.292 ± 0.75
FLILSNEIMPLFTWANKRLE | inactive
FLKYTITHLCSRPRIYLGIS | 0.16 ± 0.22
FLLIILTLYASTCRAQYAFR | 1.42 ± 0.15
FLMNHVLQNW | inactive
FLNFSGLPGFVCPVIPSHYV | inactive
FLNSCQNMQVPSGKFNSSKV | -0.122 ± 0.82
FLPPKMVLFPVSEWSLDLRY | inactive
FLPPTVINVVHAYRRFSSDR | 1.71 ± 0.098
FLSCNTCWGMTNANLSDNFN | 2.05 ± 0.071
FLSPSGVD | inactive
FLTDASWGSIFWKFLRASFV | 0.621 ± 0.14
FLTRIHFLCTCVRRNG | 1.37 ± 0.1
FLVIPWDEEKCRLSDLFASN | inactive
FLVNPVCSMVSSYCSFPSPK | 2.52 ± 0.062

Substance | amyloid nucleation score
FLYSVL | inactive
FMFASQLMRFFHSWTVSRSS | inactive
FMFVVWGYINGFGYLTGVN | inactive
FMGLGLQLRLIHLSRG | inactive
FMLGDAVFRFFVRNGGRIDN | inactive
FMMFIL | 1.42 ± 0.1
FMSSSPDSYCEKGKRQ | inactive
FMTWHFENCCWCRHSRFGLL | inactive
FMVGR | inactive
FNAGYWGMSSKVSNESRWVY | inactive
FNCGPCIVLEWYFTSVAGQG | 2.1 ± 0.071
FNDVLMAVITLSVIDTLMWT | inactive
FNFLVMILGITLPNNITFEH | 0.279 ± 0.17
FNIMVYCNESSL | inactive
FNKGYV | inactive
FNKLVWNHLSGCV | inactive
FNLNESSGYVKFYLNGNRPL | inactive
FNRKCVSVCRVRGGICWRSQ | inactive
FNSFCAYNTRHYYVVLGGIV | 1.04 ± 0.13
FNSRNSVVTDLRYWSIRGLV | inactive
FNVRWGWLGDLIYGGFLHVG | inactive
FNWFCLFLWMRNRSKPFWTM | inactive
FNWLGLGLMLGIDRDRCDNV | inactive

Substance | amyloid nucleation score
FNWRLSSITDSSVYLPSWNL | inactive
FNWTN | inactive
FPHRMLRPCYESDTFPPWTG | inactive
FPKLAIVFMHSSLWYFSYWV | inactive
FPLDRGYSVTGDMRMPPAVR | inactive
FPLESG | inactive
FPQFLSIAGPKPHCKN | inactive
FPVYQCWLSN | inactive
FQCMFYFIFSRCQHLVYCHF | inactive
FQCWYNKIRKFWVVHRWVSM | inactive
FQMVA | inactive
FRLMVGCCYGGPGREVWAGG | inactive
FRLRGLKLTSNMDDWMLIKE | inactive
FRNNRRRAVMCSGFMFRFNF | inactive
FRQYKSPGDLPRMDAVACGK | -0.832 ± 2.5
FRSAN | inactive
FRYRLWAMRDVKHSYDFSLW | inactive
FSACRDRTLGDHGQQPRDIG | inactive
FSAGGVPYYICYSCIAKFRL | inactive
FSAIRVLYSVKTELDSNNMY | 0.822 ± 0.24
FSASVVSTGINTSY | inactive
FSCDIAVILNLDLTMVDLLF | inactive
FSCMTADSNSGIVRVR | inactive

Substance | amyloid nucleation score
FSEASPLYVTSPRQSSLPRP | inactive
FSFITL | inactive
FSFTRNERIDSLCSNAHSFT | inactive
FSFWTTSN | inactive
FSGATSFNQIYAVRTSCLFV | 1.01 ± 0.18
FSGFTVR | inactive
FSGNGSSYYASSMNGDTVFL | inactive
FSGNRSGESSVRWNQYELGV | inactive
FSGRFHMENTMYHTIYKIKS | inactive
FSISKLGCCYVTAMVVSASR | inactive
FSLDPTIVMSVIARDSMSML | inactive
FSLFS | inactive
FSLHNRGFMIQHKRVLEDGA | inactive
FSLHQSNTLRPWDLIPATW | inactive
FSLLCFRSWANPIVTMYKYY | inactive
FSLMLSRTTMAIFTDIRDWG | inactive
FSLSQLLVCFWADSRSMKWT | inactive
FSLWEHPVKIMCLFVYVACG | inactive
FSNDFFCLCPS | inactive
FSNGPSAVYYFIYLGLFNKN | 1.48 ± 0.072
FSRGLNHYNLYNFGGLCICT | 2.91 ± 0.07
